Laboratory results reported in paper PMC10315481.

Target: globupain, wild-type zymogen (proenzyme) (unclassified Archaeoglobus species (metagenome))
Assay: SEC + AUC; SEC: Superdex 75 10/300 GL, 50 mM potassium phosphate pH 7.0, 150 mM NaCl, 500 uL of globupain at 1 mg/mL, calibrated with proteins of known molecular weight; AUC (p-0016): sedimentation velocity, 20°C, 50,000 rpm, 50 mM potassium phosphate pH 7.0, 150 mM NaCl, 1 mM EDTA, c(s) distribution in …

globupain, wild-type zymogen (proenzyme)
stoichiometry N: 2
